# Entries after “also recorded” stand apart in the source; their conditions may differ.
# Molecular target: VEGFR-I (Homo sapiens, UniProt P17948)
# Experiment: VEGFR-I phosphorylation assay, BT474 cells
# Format: cell-based
# Parameters: endogenous in cells; host or cells: BT474 human breast carcinoma cells
# Settings: BT474 breast cancer cells, compared to untreated control, FIG. 11
# Method: Confluent porcine aorta endothelial VEGFR-I expressing (PAE-VEGFR-I) cells and BT474 human breast carcinoma cells were cultured in serum-depleted F12 medium for 48 hours. The cells were then preincubated with anti-VEGFR-I antibody clone 18F1 at concentrations ranging from 0.1 to 30 μg/ml for 1 hour followed by stimulating with VEGF or PlGF for 5 minutes at 37° C. The cells were then rinsed with ice-cold PBS and lysed in lysis buffer (50 mM HEPES, 150 mM NaCl, 1% Triton X-100, and 10% glycerol containing 1 mM phenylmethylsulfonyl fluoride, 10 μg/ml aprotinin, 10 μg/ml leupeptin, and 1 mM sodium vanadate). Cell lysates were subjected to SDS-PAGE and transferred onto Immobilon membranes (Millipore Corp. Billerica, Mass.). […]
# Autophosphorylation of the VEGFR-I induced by its ligands and resulting activation of a classical MAPK, extracellular signal-regulated protein kinases 1Z2 (ERK1Z2) and the PBK/Atk downstrean signaling pathways mediate cellular biological responses such as proliferation, motility, survival, and differentiation. The ability of an anti-VEGFR-1 antibody to inhibit phosphorylation of VEGFR-I and activation of ERK1 Z2 and the Akt kinases downstream signaling were determined by using the PAE-VEGFR-I transfectant and BT474 breast carcinoma cells. […]
# Sequence of VEGFR-I (P17948 27-1338): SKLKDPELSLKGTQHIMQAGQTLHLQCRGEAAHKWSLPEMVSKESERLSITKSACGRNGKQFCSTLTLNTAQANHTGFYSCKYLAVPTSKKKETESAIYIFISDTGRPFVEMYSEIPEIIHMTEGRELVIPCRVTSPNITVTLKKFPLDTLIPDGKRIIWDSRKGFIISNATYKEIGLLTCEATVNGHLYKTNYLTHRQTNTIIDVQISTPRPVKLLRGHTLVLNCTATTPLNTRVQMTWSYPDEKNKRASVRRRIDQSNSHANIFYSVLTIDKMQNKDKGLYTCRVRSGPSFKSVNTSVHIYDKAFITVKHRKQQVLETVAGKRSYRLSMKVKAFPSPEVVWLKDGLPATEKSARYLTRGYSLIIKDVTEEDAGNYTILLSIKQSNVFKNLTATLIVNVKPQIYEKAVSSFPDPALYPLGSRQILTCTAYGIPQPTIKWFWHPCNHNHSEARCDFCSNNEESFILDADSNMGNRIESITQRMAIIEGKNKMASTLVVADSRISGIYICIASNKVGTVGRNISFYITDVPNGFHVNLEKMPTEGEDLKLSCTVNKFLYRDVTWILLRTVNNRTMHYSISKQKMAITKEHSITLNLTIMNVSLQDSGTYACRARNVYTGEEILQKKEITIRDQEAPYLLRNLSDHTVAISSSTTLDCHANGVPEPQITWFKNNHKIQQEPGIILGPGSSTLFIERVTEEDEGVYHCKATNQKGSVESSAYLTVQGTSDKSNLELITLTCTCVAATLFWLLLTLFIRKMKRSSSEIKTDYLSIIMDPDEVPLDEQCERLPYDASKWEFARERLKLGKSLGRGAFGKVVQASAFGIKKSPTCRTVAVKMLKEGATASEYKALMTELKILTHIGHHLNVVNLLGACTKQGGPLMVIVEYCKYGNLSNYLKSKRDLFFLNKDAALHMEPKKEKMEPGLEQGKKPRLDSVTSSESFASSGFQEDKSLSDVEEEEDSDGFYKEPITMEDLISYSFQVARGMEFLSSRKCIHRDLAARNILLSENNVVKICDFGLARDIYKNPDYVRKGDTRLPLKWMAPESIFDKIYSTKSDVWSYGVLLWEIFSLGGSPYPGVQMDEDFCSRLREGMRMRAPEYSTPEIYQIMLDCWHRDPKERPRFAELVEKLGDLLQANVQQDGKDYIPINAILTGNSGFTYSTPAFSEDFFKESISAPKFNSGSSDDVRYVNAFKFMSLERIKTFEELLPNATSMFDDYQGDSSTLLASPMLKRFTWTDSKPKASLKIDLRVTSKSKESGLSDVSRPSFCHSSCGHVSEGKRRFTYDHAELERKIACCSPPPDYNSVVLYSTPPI
substance,measurement,value
"18F1: human anti-VEGFR-1 monoclonal antibody clone; VL SEQ ID NO: 16, VH SEQ ID NO: 20 [Clone 18F1]",PlGF or VEGF-stimulated phosphorylation of VEGFR-I,significantly reduced; also recorded: inhibition

# Reference: patent US8143025B2, “Antibodies against vascular endothelial growth factor receptor-1” (ImClone LLC, priority 2004, dated 2012)
